# From PMC8573386 (Frontiers in Immunology, 2021)
# Legend:
# [1] = biological target: T1, EGFR on EGFR-overexpressing tumor cell line A431 (Homo sapiens, A431 cells, UniProt P00533); test: flow cytometry on cells; EGFR-positive A431 cells incubated 1 h on ice with antibody derivatives 0.05 nM to 1 µM, detected with Alexa Fluor 488 Fab goat antihuman IgG (H+L); apparent binding affinities; conditions: one partner purified
# T1 construct: epidermal growth factor receptor on the surface of A431 cells; also used as the target of the functional rows on A549 cells; also called EGFR-positive A431 cells; source: endogenous, on A431 cells
# [2] = biological target: T1, EGFR on EGFR-overexpressing tumor cell …; test: cell-based or functional assay
Binder,EC50 [1],"ADCC EC50 killing: NK cell-mediated lysis of EGFR-overexpressing A431 cells, E:T 5:1 [2]",ADCC mean max killing of A431 cells (normalized to Cetuximab) [2]
"60C03 IgG (antibody, synthetic bovine IGHV1-7 (VHBUL) scaffold, FR1 to FR3; ultralong CDR-H3 (stalk and knob) of clone 60C03 from immunised cattle; FR4 of the synthetic VH domain; human IgG1 heavy chain constant regions; bovine VL (V30, VLλ30) deduced from PDB entries that share a CDR-identical light chain; human constant lambda region (CLλ); chimeric IgG1; all clones share one fixed light chain and VH scaffold and …) VH: QVQLRESGPSLVKPSQTLSLTCTASGFSLSDKAVGWVRQAPGKALEWLGGIDTGGSTGYNPGLKSRLSITKDNSKSQVSLSVSSVTTEDSATYYCTTVHQETKKENSCPDGYTSGVECRFRGYTCANDGCWRVCSFTTCSGWMPASDTYRYEYHVDAWGQGLLVTVSS VL: EAVLNQPSSVSGSLGQRVSITCSGSSSNVGNGYVSWYQLIPGSAPRTLIYGDTSRASGVPDRFSGSRSGNTATLTISSLQAEDEADYFCASAEDSSSNAVFGSGTTLTVL",3 nM,0.0265 nM,103%
"60D01 IgG (antibody, synthetic bovine IGHV1-7 (VHBUL) scaffold, FR1 to FR3; ultralong CDR-H3 (stalk and knob) of clone 60D01 from immunised cattle; FR4 of the synthetic VH domain; human IgG1 heavy chain constant regions; as the light chain of m3: bovine VL (V30, VLλ30) deduced from PDB entries that share a CDR-identical light chain; human constant lambda region (CLλ); chimeric IgG1; also called chimeric bovine × …) VH: QVQLRESGPSLVKPSQTLSLTCTASGFSLSDKAVGWVRQAPGKALEWLGGIDTGGSTGYNPGLKSRLSITKDNSKSQVSLSVSSVTTEDSATYYCTTVHQETTKTASCPDGYAEHFGRGWGYWGCGGCDCCQENGAGGGWGNCGLYSTSYTYEHHIDAWGQGLLVTVSS VL: EAVLNQPSSVSGSLGQRVSITCSGSSSNVGNGYVSWYQLIPGSAPRTLIYGDTSRASGVPDRFSGSRSGNTATLTISSLQAEDEADYFCASAEDSSSNAVFGSGTTLTVL",1.3 nM,0.606 nM,76.3%
"60F06 IgG (antibody, synthetic bovine IGHV1-7 (VHBUL) scaffold, FR1 to FR3; ultralong CDR-H3 (stalk and knob) of clone 60F06 from immunised cattle; FR4 of the synthetic VH domain; human IgG1 heavy chain constant regions; as the light chain of m3: bovine VL (V30, VLλ30) deduced from PDB entries that share a CDR-identical light chain; human constant lambda region (CLλ); chimeric IgG1; also called chimeric bovine × …) VH: QVQLRESGPSLVKPSQTLSLTCTASGFSLSDKAVGWVRQAPGKALEWLGGIDTGGSTGYNPGLKSRLSITKDNSKSQVSLSVSSVTTEDSATYYCTTVHQRTEKIAKCPDGYSDARHCRDGCDCFGWDCFRSGAWAECYYEVYTYVHTYEHHVDAWGQGLLVTVSS VL: EAVLNQPSSVSGSLGQRVSITCSGSSSNVGNGYVSWYQLIPGSAPRTLIYGDTSRASGVPDRFSGSRSGNTATLTISSLQAEDEADYFCASAEDSSSNAVFGSGTTLTVL",3 nM,0.0048 nM,108%
"60C08 IgG (antibody, synthetic bovine IGHV1-7 (VHBUL) scaffold, FR1 to FR3; ultralong CDR-H3 (stalk and knob) of clone 60C08 from immunised cattle; FR4 of the synthetic VH domain; human IgG1 heavy chain constant regions; as the light chain of m3: bovine VL (V30, VLλ30) deduced from PDB entries that share a CDR-identical light chain; human constant lambda region (CLλ); chimeric IgG1; also called chimeric bovine × …) VH: QVQLRESGPSLVKPSQTLSLTCTASGFSLSDKAVGWVRQAPGKALEWLGGIDTGGSTGYNPGLKSRLSITKDNSKSQVSLSVSSVTTEDSATYYCTTVHQKTIETTQKTCPDGYFYADTCWAYSCRCRDCDCCRSSGGCTYSRDSHTATYEWHVDAWGQGLLVTVSS VL: EAVLNQPSSVSGSLGQRVSITCSGSSSNVGNGYVSWYQLIPGSAPRTLIYGDTSRASGVPDRFSGSRSGNTATLTISSLQAEDEADYFCASAEDSSSNAVFGSGTTLTVL",0.9 nM,0.0587 nM,92.1%

# More lines, in order of falling EC50 [1], values ahead:
EC50 [1],Binder,"ADCC EC50 killing: NK cell-mediated lysis of EGFR-overexpressing A431 cells, E:T 5:1 [2]",ADCC mean max killing of A431 cells (normalized to Cetuximab) [2]
10.1 nM,"60E11 IgG (antibody, synthetic bovine IGHV1-7 (VHBUL) scaffold, FR1 to FR3; ultralong CDR-H3 (stalk and knob) of clone 60E11 from immunised cattle; FR4 of the synthetic VH domain; human IgG1 heavy chain constant regions; as the light chain of m3: bovine VL (V30, VLλ30) deduced from PDB entries that share a CDR-identical light chain; human constant lambda region (CLλ); chimeric IgG1; also called chimeric bovine × …) VH: QVQLRESGPSLVKPSQTLSLTCTASGFSLSDKAVGWVRQAPGKALEWLGGIDTGGSTGYNPGLKSRLSITKDNSKSQVSLSVSSVTTEDSATYYCTTVHQRTRKTCPDGWRDGSDCPYGHRCGDYDCCGYGCYDGRGTNRFTGVVESYTYEWYVDAWGQGLLVTVSS VL: EAVLNQPSSVSGSLGQRVSITCSGSSSNVGNGYVSWYQLIPGSAPRTLIYGDTSRASGVPDRFSGSRSGNTATLTISSLQAEDEADYFCASAEDSSSNAVFGSGTTLTVL",0.0033 nM,96%
2.6 nM,"60H05 IgG (antibody, synthetic bovine IGHV1-7 (VHBUL) scaffold, FR1 to FR3; ultralong CDR-H3 (stalk and knob) of clone 60H05 from immunised cattle; FR4 of the synthetic VH domain; human IgG1 heavy chain constant regions; as the light chain of m3: bovine VL (V30, VLλ30) deduced from PDB entries that share a CDR-identical light chain; human constant lambda region (CLλ); chimeric IgG1; also called chimeric bovine × …) VH: QVQLRESGPSLVKPSQTLSLTCTASGFSLSDKAVGWVRQAPGKALEWLGGIDTGGSTGYNPGLKSRLSITKDNSKSQVSLSVSSVTTEDSATYYCTTVHQKTNKLKSCPDGYTSGVECRFRGYTCANDGCWRVCSFTTCSGWMPASDTYRYEYHVDAWGQGLLVTVSS VL: EAVLNQPSSVSGSLGQRVSITCSGSSSNVGNGYVSWYQLIPGSAPRTLIYGDTSRASGVPDRFSGSRSGNTATLTISSLQAEDEADYFCASAEDSSSNAVFGSGTTLTVL",0.0164 nM,105%
